In publication doi:10.1101/2021.10.11.463801, “JIP3 regulates bi-directional organelle transport in neurons through its interaction with dynein and kinesin-1” (bioRxiv, 2021):
Positions count from the first letter of the chain named. Names may count otherwise. One block for each binder: values may come before it.

How the values were obtained:
[1] = target: the molecule itself; assay: AUC; sedimentation velocity, 42'000 rpm, 20 °C; 50 mM HEPES, 100 mM NaCl, 0.5 mM TCEP, pH 7.5; c(S) by SEDFIT
[2] = target: T1, mouse JIP3[186-505] (mouse, UniProt Q9ESN9-5 186-505); assay: pull-down; GST-tagged bait on glutathione agarose resin; purified recombinant proteins mixed in 50 mM HEPES, 100 mM NaCl, 5 mM DTT, pH 7.5; 1 h at 4 °C; eluted with 15 mM reduced L-glutathione; SDS-PAGE with Coomassie Blue or immunoblot; conditions: both partners purified
T1 construct: mouse JIP3, residues 186-505 (holds the leucine zipper); numbers count on UniProt Q9ESN9-5; also called JIP3[186-505] wild type; source: E. coli (BL21, BL21-CodonPlus-RIL or Rosetta), purified
T1 sequence (looked up): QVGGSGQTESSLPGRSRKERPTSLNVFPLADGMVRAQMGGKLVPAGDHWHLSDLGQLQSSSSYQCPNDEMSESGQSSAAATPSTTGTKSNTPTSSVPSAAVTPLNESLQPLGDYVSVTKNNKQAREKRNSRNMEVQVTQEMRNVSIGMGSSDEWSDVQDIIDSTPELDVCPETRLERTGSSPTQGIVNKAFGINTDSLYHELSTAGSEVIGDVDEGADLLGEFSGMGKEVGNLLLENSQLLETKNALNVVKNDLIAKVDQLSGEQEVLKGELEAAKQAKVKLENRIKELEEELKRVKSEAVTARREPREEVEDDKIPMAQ

B1: JIP4[1-103] (domain or fragment, human, UniProt O60271-1 1-103, looked up)
chain: MELEDGVVYQEEPGGSGAVMSERVSGLAGSIYREFERLIGRYDEEVVKELMPLVVAVLENLDSVFAQDQEHQVELELLRDDNEQLITQYEREKALRKHAEEKF
notes: human JIP4, residues 1-103 (RH1 domain); UniProt O60271-1; Dimer by AUC; also called JIP4-RH1; RH1 domain of JIP4; source: E. coli (BL21, BL21-CodonPlus-RIL or Rosetta), purified
stoichiometry N [1]: 2

B2: JIP3[1-108] (domain or fragment, human, UniProt Q9UPT6-1 1-108, looked up)
chain: MMEIQMDEGGGVVVYQDDYCSGSVMSERVSGLAGSIYREFERLIHCYDEEVVKELMPLVVNVLENLDSVLSENQEHEVELELLREDNEQLLTQYEREKALRRQAEEKF
notes: UniProt Q9UPT6-1; Dimer by AUC; also called JIP3-RH1; RH1 domain of JIP3; source: E. coli (BL21, BL21-CodonPlus-RIL or Rosetta), purified
stoichiometry N [1]: 2

B3: JIP3[1-108] V60Q (domain or fragment, human, UniProt Q9UPT6-1 1-108, looked up)
chain: B2 chain with V60Q
notes: human JIP3, residues 1-108 (RH1 domain) with V60Q; UniProt Q9UPT6-1; Dimer by AUC; also called JIP3-RH1 V60Q; source: E. coli (BL21, BL21-CodonPlus-RIL or Rosetta), purified
stoichiometry N [1]: 2

binding result [2]: binds
B4: GST-tagged KLC1[185-501] (domain or fragment, human, UniProt Q07866-1 185-501, looked up)
chain: DDPGQGIQQQHSSAAAAAQQGGYEIPARLRTLHNLVIQYASQGRYEVAVPLCKQALEDLEKTSGHDHPDVATMLNILALVYRDQNKYKDAANLLNDALAIREKTLGKDHPAVAATLNNLAVLYGKRGKYKEAEPLCKRALEIREKVLGKDHPDVAKQLNNLALLCQNQGKYEEVEYYYQRALEIYQTKLGPDDPNVAKTKNNLASCYLKQGKFKQAETLYKEILTRAHEREFGSVDDENKPIWMHAEEREECKGKQKDGTSFGEYGGWYKACKVDSPTVTTTLKNLGALYRRQGKFEAAETLEEAAMRSRKQGLDNV
notes: human kinesin light chain 1 (KLC1), residues 185-501 (TPR domain); UniProt Q07866-1; also called KLC1 fragment; KLC1 TPR domain; source: E. coli (BL21, BL21-CodonPlus-RIL or Rosetta), purified; not shown: GST, N-terminal, kept
